Substitutions are numbered along the chain they refer to.
Experiments:
[1] = target: T1, CDT1^ΔN (N-terminally truncated CDT1^158-546) (human, UniProt Q9H211 158-546); assay: SPR
T1 chain: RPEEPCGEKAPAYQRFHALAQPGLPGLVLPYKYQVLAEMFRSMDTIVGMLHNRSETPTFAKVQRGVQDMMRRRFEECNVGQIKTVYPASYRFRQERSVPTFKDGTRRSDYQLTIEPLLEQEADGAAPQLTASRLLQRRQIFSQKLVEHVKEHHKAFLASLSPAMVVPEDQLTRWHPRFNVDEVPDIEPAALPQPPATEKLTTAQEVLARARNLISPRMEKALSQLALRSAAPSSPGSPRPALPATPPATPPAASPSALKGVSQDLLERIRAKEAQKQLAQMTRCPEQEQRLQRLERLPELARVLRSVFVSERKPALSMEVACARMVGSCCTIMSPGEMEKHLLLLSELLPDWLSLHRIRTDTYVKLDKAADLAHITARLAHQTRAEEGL

[2] = target: T2, full-length CDT1 (CDT1^FL), untagged, co-expressed with geminin (CG complex) (human, UniProt Q9H211 1-546); assay: SEC-MALS; co-expressed and co-purified CDT1^FL-geminin (CG) complex at >25× higher concentration than in the pre-RC assay; conditions: both partners purified
T2 construct: CDT1, human, UniProt Q9H211, residues 1-546; A separate GST-cleaved CDT1^FL was used only in pre-RC assays; also called CDT1 of the CG complex; source: E. coli BL21 (DE3), co-expressed with His-geminin, co-purified as described for geminin
T2 sequence (looked up): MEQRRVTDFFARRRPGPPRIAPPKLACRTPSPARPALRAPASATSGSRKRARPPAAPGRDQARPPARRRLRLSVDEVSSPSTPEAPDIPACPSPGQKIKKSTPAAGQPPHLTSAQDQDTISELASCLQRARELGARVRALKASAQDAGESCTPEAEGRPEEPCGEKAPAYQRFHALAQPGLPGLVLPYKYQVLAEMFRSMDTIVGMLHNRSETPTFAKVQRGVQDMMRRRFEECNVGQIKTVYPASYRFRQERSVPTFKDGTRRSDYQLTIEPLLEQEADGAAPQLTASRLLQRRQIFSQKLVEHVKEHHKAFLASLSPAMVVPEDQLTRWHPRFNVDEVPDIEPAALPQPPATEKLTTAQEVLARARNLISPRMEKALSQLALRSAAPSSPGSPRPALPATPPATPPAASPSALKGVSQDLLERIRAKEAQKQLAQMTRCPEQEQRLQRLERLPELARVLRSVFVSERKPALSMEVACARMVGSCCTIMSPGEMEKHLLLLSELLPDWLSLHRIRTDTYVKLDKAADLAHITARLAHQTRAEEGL

[3] = target: T3, CDT1^ΔN (N-terminally truncated CDT1^158-546) (human, UniProt Q9H211 158-546); assay: mass photometry; room temperature; proteins incubated at CDT1:geminin monomer ratios 0:1, 1:0, 1:2, 1:3, 2:4, 1:4 (1 part = 150 nM) in pre-RC buffer minus Triton X-100, diluted 1:10 in PBS on the instrument; MHD, CHD at 1:2; conditions: both partners purified
T3 construct: CDT1, human, UniProt Q9H211, residues 158-546 (lacks the unstructured N-terminus); Plasmid is in Supplementary Data 1; The His tag serves for capture on the NTA chip in the SPR with peptides; also called standard CDT1 construct; source: E. coli BL21 (DE3), purified (HisTrap Excel, POROS HS, Superdex 200); not shown: His6, N-terminal, kept
T3 sequence (looked up): T1 chain

[4] = target: T4, CDT1 middle helical domain (CDT1^MHD, residues 158–396) (human, UniProt Q9H211 158-396); assay: as above; conditions: both partners purified
T4 construct: CDT1, human, UniProt Q9H211, residues 158-396; also called CDT1^158-396; source: E. coli, purified as CDT1^ΔN with the POROS HS step omitted
T4 sequence (looked up): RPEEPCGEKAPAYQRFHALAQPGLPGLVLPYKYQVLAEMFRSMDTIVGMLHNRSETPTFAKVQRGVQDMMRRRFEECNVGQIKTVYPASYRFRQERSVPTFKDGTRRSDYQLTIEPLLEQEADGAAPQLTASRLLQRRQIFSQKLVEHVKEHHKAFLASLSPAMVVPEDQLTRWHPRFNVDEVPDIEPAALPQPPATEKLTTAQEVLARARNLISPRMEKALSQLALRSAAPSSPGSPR

[5] = target: T5, CDT1^4A (CDT1^ΔN with residues 327–330 mutated to alanines) (human, UniProt Q9H211 158-546, residues 327–330 mutated to alanines (CDT1^4A)); assay: as above; conditions: both partners purified
T5 construct: CDT1, human, UniProt Q9H211, residues 158-546 with residues 327-330 all alanine; R330 is; source: E. coli, purified as for the MHD and CHD
T5 sequence (looked up): T1 chain with Q170A, L171A, T172A, R173A

[6] = target: T6, CDT1^R330A (on a CDT1^ΔN background) (human, UniProt Q9H211 158-546, R330A); assay: as above; conditions: both partners purified
T6 construct: CDT1, human, UniProt Q9H211, residues 158-546 with R330A; source: E. coli, purified as for the MHD and CHD
T6 sequence (looked up): T1 chain with R173A

[7] = target: the molecule itself; assay: as above
[8] = target: T3, CDT1^ΔN (N-terminally truncated …); assay: SPR; single-cycle; CDT1^ΔN covalently immobilised on a CM5 chip (EDC/NHS); Gem^FL dimer injected, 7 injections, three-fold steps up to 750 nM; 25 °C; 10 mM HEPES, 500 mM NaCl, 50 µM EDTA, 1 mM TCEP-HCl, 0.05% Tween-20, pH 8.0; 1:1 kinetic model of analyte dimer:CDT1; conditions: both partners purified

koff [1]: 0.0019 s⁻¹
stoichiometry N [2]: 2 geminin monomers per CDT1
stoichiometry N [3]: 2 geminin monomers per CDT1
stoichiometry N [4]: 2 geminin monomers per CDT1^MHD
stoichiometry N [5]: 2 geminin monomers per CDT1
stoichiometry N [6]: 2 geminin monomers per CDT1
Kd [8]: 12 nM
B1: full-length geminin (Gem^FL) (natural protein, human, UniProt O75496 1-209, looked up)
chain: MNPSMKQKQEEIKENIKNSSVPRRTLKMIQPSASGSLVGRENELSAGLSKRKHRNDHLTSTTSSPGVIVPESSENKNLGGVTQESFDLMIKENPSSQYWKEVAEKRRKALYEALKENEKLHKEIEQKDNEIARLKKENKELAEVAEHVQYMAELIERLNGEPLDNFESLDNQEFDSEEETVEDSLVEDSEIGTCAEGTVSSSTDAKPCI
notes: geminin, human, UniProt O75496, full length; Dimer in solution; In the co-purification of the CG complex the His tag is still on geminin at the HisTrap step and is cleaved afterwards; Plasmid is in Supplementary Data 1; also called WT geminin; source: E. coli BL21 (DE3), purified (HisTrap Excel, POROS HQ, Superdex 200); also co-expressed with untagged CDT1 in E. coli BL21 (DE3) and purified in …
stoichiometry N [7]: 1.91 ± 0.09

Reference: article PMC12695944, “Geminin inhibits DNA replication licensing by sterically blocking CDT1-MCM2 interactions” (Nature Communications, 2025)
